B1: L-SIGN-3 (receptor)
chain: MSDSKEPRVQQLGLLEEDPTTSGIRLFPRDFQFQQIHGHKSSTGCLGHGALVLQLLSFMLLAGVLVAILVQVSKVPSSLSQEQSEQDAIYQNLTQLKAAVGELSEKSKLQEIYQELTRLKAAVGELPEKSKLQEIYQELTQLKAAVGELPDQSKQQQIYQELTDLKTAFERLCRHCPKDWTFFQGNCYFMSNSQRNWHDSVTACQEVRAQLVVIKTAEEQNFLQLQTSRSNRFSWMGLSDLNQEGTWQWVDGSPLSPSFQRYWNSGEPNNSGNEDCAEFSGSGWNDNRCDVDNYWICKKPAACFRDE
notes: Expressed whole on the surface of stably transfected HeLa cells; Encodes tandem repeats 1, 3 and 7; also called L-SIGN isoform containing 3 tandem repeats; 3-repeat form of L-SIGN
B2: L-SIGN-9 (receptor)
chain: MSDSKEPRVQQLGLLEEDPTTSGIRLFPRDFQFQQIHGHKSSTGCLGHGALVLQLLSFMLLAGVLVAILVQVSKVPSSLSQEQSEQDAIYQNLTQLKAAVGELSEKSKLQEIYQELTQLKAAVGELPEKSKLQEIYQELTRLKAAVGELPEKSKLQEIYQELTRLKAAVGELPEKSKLQEIYQELTRLKAAVGELPEKSKLQEIYQELTRLKAAVGELPEKSKLQEIYQELTRLKAAVGELPEKSKLQEIYQELTELKAAVGELPEKSKLQEIYQELTQLKAAVGELPDQSKQQQIYQELTDLKTAFERLCRHCPKDWTFFQGNCYFMSNSQRNWHDSVTACQEVRAQLVVIKTAEEQNFLQLQTSRSNRFSWMGLSDLNQEGTWQWVDGSPLSPSFQRYWNSGEPNNSGNEDCAEFSGSGWNDNRCDVDNYWICKKPAACFRDE
notes: Expressed whole on the surface of stably transfected HeLa cells; also called L-SIGN isoform containing 9 tandem repeats; 9-repeat form of L-SIGN
B3: L-SIGN-4 (receptor)
chain: MSDSKEPRVQQLGLLEEDPTTSGIRLFPRDFQFQQIHGHKSSTGCLGHGALVLQLLSFMLLAGVLVAILVQVSKVPSSLSQEQSEQDAIYQNLTQLKAAVGELSEKSKLQEIYQELTRLKAAVGELPEKSKLQEIYQELTRLKAAVGELPEKSKLQEIYQELTQLKAAVGELPDQSKQQQIYQELTDLKTAFERLCRHCPKDWTFFQGNCYFMSNSQRNWHDSVTACQEVRAQLVVIKTAEEQNFLQLQTSRSNRFSWMGLSDLNQEGTWQWVDGSPLSPSFQRYWNSGEPNNSGNEDCAEFSGSGWNDNRCDVDNYWICKKPAACFRDE
notes: Expressed whole on the surface of stably transfected HeLa cells; Encodes repeats 1, 3, 4 and 7; also called L-SIGN isoform containing 4 tandem repeats; 4-repeat form of L-SIGN
B4: L-SIGN-5 (receptor)
chain: MSDSKEPRVQQLGLLEEDPTTSGIRLFPRDFQFQQIHGHKSSTGCLGHGALVLQLLSFMLLAGVLVAILVQVSKVPSSLSQEQSEQDAIYQNLTQLKAAVGELSEKSKLQEIYQELTQLKAAVGELPEKSKLQEIYQELTRLKAAVGELPEKSKLQEIYQELTRLKAAVGELPEKSKLQEIYQELTQLKAAVGELPDQSKQQQIYQELTDLKTAFERLCRHCPKDWTFFQGNCYFMSNSQRNWHDSVTACQEVRAQLVVIKTAEEQNFLQLQTSRSNRFSWMGLSDLNQEGTWQWVDGSPLSPSFQRYWNSGEPNNSGNEDCAEFSGSGWNDNRCDVDNYWICKKPAACFRDE
notes: Expressed whole on the surface of stably transfected HeLa cells; Encodes repeats 1-4 and 7; also called L-SIGN isoform containing 5 tandem repeats; 5-repeat form of L-SIGN

Target: T1, HCV pseudovirus particles (HCVpp) (hepatitis C virus isolate H77, UniProt P27958 192-383; P27958 384-746)
T1 construct: A pseudovirus particle (HIV-1 NL4.3 luciferase core) that carries E1/E2 on its envelope; Putative splice acceptor sites changed by conservative mutagenesis; also called HIV-1 particles pseudotyped with HCV E1/E2 envelope glycoproteins
Test: HCVpp supernatant on HeLa-SIGN transfectants, cell-bound p24 by ELISA

Row | Binder | binding result
1 | B1 | binds
2 | B2 | binds
3 | B3 | binds
4 | B4 | binds

From US20060292151A1 (published 2006)
